Experimental data taken from patent US12031137B2, “Compositions comprising SASP modulators and senescence attenuators and uses thereof for modulating cellular senescence” (RSEM, LIMITED PARTNERSHIP, priority 2016, dated 2024).
Residue numbers refer to the chain shown, from its start. Names and notes keep the numbering of the source. One block for each molecule: values may come before it.

How the values were obtained:
SEMA3A-FC = experiment: Sema 3A binding assay on plate-coated purified traps (saturation curves, KD); details: for Binding to SEMA3A: Table 2, Yes/No; for Kd: read-out: SEMA 3A-FC binding (dissociation constant)
Method: (§1) Sema 3A and AP-VEGF165 binding assays. Saturation curves for the determinations of KD of binding to SEMA 3A or VEGF165 were obtained as follow. Wells of high protein binding 96 well plates (Maxisorp, Nunc) were coated with purified traps diluted in PBS and blocked afterward with binding buffer (PBS containing 2% casein and 0.05% Tween 20). The SEMA3A-FC (R&D systems) or AP-VEGF165 ligands were diluted in binding buffer over an extensive range of concentrations and added to wells. Following an overnight incubation, wells were washed with PBS containing 0.05% tween. Bound SEMA3a-FC was detected using an HRP-linked anti-Human IgG (Biorad) and ECL substrate (Pierce). Alternatively, bound AP-VEGF165 was detected using CPD star substrate (Roche). The Chemiluminescent signal was acquired on a TECAN reader. Dissociation constant (KD) were determined by non-linear curve fitting using the Graph Pad prism software.
(§2) The relative affinity of traps of the present invention to SEMA3A and VEGF has been assessed. Traps were prepared as described in Example 8.

human VEGF165 = biological target: T1, human VEGF165 (Homo sapiens, UniProt P15692); experiment: AP-VEGF165 binding assay on plate-coated purified traps (saturation curves, KD); details: AP-VEGF165 ligand; for Kd: read-out: VEGF165 binding (dissociation constant)
T1 construct: made in house; host or cells: HEK293T
T1 sequence (P15692 27-191 isoform P15692-4): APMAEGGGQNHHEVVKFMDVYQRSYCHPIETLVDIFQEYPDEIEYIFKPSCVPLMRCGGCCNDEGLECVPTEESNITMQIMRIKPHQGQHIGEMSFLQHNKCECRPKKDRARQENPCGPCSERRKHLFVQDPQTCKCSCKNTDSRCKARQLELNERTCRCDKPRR
Method: Production of AP-VEGF165. the coding sequence of the human VEGF165 variant 1 (NM_001025366) was sub-cloned in the pAPtag5 vector (GenHunter), in-frame with an Alkaline Phosphatase domain (AP-VEGF165). HEK293T cells were transfected with the AP-VEGF165 construct using a polyethylenimine (PEI) transfection method. Following the overnight transfection step, cells were cultured for an additional 60 hr in serum free media (In vitrogen). The cell media were collected and concentrated on a PES device (Pierce). The concentrated AP-VEGF165 ligand was analysed on PAGE-SDS and quantified using SimplyBlue safe stain (Life technologies).
as §1, §2

[1] = traps coated on plate, overnight incubation

Binding to SEMA3A (SEMA3A-FC): Yes | Kd (human VEGF165): 24.6 nM
Molecule: Trap S: NRP1 trap a1a2-b1-c, aa about 22-430 and 584-856; SEQ ID NOs 93/94

Binding to SEMA3A (SEMA3A-FC): Yes | Kd (SEMA3A-FC; [1]): 1.14 nM | Kd (human VEGF165): 20.7 nM
Molecule: Trap W: NRP1 trap a1a2-b1-c (in part), aa about 22-430 and 584-795; SEQ ID NOs 87/88

Binding to SEMA3A (SEMA3A-FC): No | SEMA 3A-FC binding (dissociation constant) (SEMA3A-FC; [1]): No binding | VEGF165 binding (dissociation constant) (human VEGF165): No binding
B1: Trap AD: NRP1 trap a1a2b1, aa about 22-424 and 561-583, D320K; SEQ ID NOs 51/52 (protein)
chain: MERGLPLLCAVLALVLAPAGAFRNDKCGDTIKIESPGYLTSPGYPHSYHPSEKCEWLIQAPDPYQRIMINFNPHFDLEDRDCKYDYVEVFDGENENGHFRGKFCGKIAPPPVVSSGPFLFIKFVSDYETHGAGFSIRYELFKRGPECSQNYTTPSGVIKSPGFPEKYPNSLECTYIVFAPKMSEIILEFESFDLEPDSNPPGGMFCRYDRLEIWDGFPDVGPHIGRYCGQKTPGRIRSSSGILSMVFYTDSAIAKEGFSANYSVLQSSVSEDFKCMEALGMESGEIHSDQITASSQYSTNWSAERSRLNYPENGWTPGEKSYREWIQVDLGLLRFVTAVGTQGAISKETKKKYYVKTYKIDVSSNGEDWITIKEGNKPVLFQGNTNPTDVVVAVFPKPLITRFVRIKPATWETGISMRFEVYGCRSGSKENLYFQG

Binding to SEMA3A (SEMA3A-FC): Yes
B2: Trap AJ: NRP1 trap a2b1b2c, aa about 22-26, 143-630 and 701-856; SEQ ID NOs 59/60 (protein)
chain: MERGLPLLCAVLALVLAPAGAFRNDKRGPECSQNYTTPSGVIKSPGFPEKYPNSLECTYIVFAPKMSEIILEFESFDLEPDSNPPGGMFCRYDRLEIWDGFPDVGPHIGRYCGQKTPGRIRSSSGILSMVFYTDSAIAKEGFSANYSVLQSSVSEDFKCMEALGMESGEIHSDQITASSQYSTNWSAERSRLNYPENGWTPGEDSYREWIQVDLGLLRFVTAVGTQGAISKETKKKYYVKTYKIDVSSNGEDWITIKEGNKPVLFQGNTNPTDVVVAVFPKPLITRFVRIKPATWETGISMRFEVYGCKITDYPCSGMLGMVSGLISDSQITSSNQGDRNWMPENIRLVTSRSGWALPPAPHSYINEWLQIDLGEEKIVRGIIIQGGKHRENKVFMRKFKIGYSNNGSDWKMIMDDSKRKAKSFEGNNNYDTPELRTFPALSTRFIRIYPERATHGGLGLRMELLGCEVEAPTAGPTTPNGNLVDECDDDQANCHSGTGDDFQLTGGTTVLATEKPTVIDSTIQSEFPTYGFNCEFGWGSHKTFCHWEHDNHVQLKWSVLTSKTGPIQDHTGDGNFIYSQADENQKGKVARLVSPVVYSQNSAHCMTFWYHMSGSHVGTLRVKLRYQKPEEYDQLVWMAIGHQGDHWKEGRVLLHKSLKLYQVIFEGEIGKGNLGGIAVDDISINNHISQEDCAKPADLDKKNPEIKIDETGSTPGYEGEGEGDKNISRKPGNVLKTLDPRSGSKENLYFQG

Binding to SEMA3A (SEMA3A-FC): Yes
B3: Trap AS: NRP1 trap a2b1c, aa about 22-26, 143-430 and 584-856; SEQ ID NOs 65/66 (protein)
chain: MERGLPLLCAVLALVLAPAGAFRNDKRGPECSQNYTTPSGVIKSPGFPEKYPNSLECTYIVFAPKMSEIILEFESFDLEPDSNPPGGMFCRYDRLEIWDGFPDVGPHIGRYCGQKTPGRIRSSSGILSMVFYTDSAIAKEGFSANYSVLQSSVSEDFKCMEALGMESGEIHSDQITASSQYSTNWSAERSRLNYPENGWTPGEDSYREWIQVDLGLLRFVTAVGTQGAISKETKKKYYVKTYKIDVSSNGEDWITIKEGNKPVLFQGNTNPTDVVVAVFPKPLITRFVRIKPATWETGISMRFEVYGCKITDYPEVEAPTAGPTTPNGNLVDECDDDQANCHSGTGDDFQLTGGTTVLATEKPTVIDSTIQSEFPTYGFNCEFGWGSHKTFCHWEHDNHVQLKWSVLTSKTGPIQDHTGDGNFIYSQADENQKGKVARLVSPVVYSQNSAHCMTFWYHMSGSHVGTLRVKLRYQKPEEYDQLVWMAIGHQGDHWKEGRVLLHKSLKLYQVIFEGEIGKGNLGGIAVDDISINNHISQEDCAKPADLDKKNPEIKIDETGSTPGYEGEGEGDKNISRKPGNVLKTLDPRSGSKENLYFQG

Binding to SEMA3A (SEMA3A-FC): Yes
B4: Trap AK: NRP1 trap a2b1b2, aa about 22-26 and 143-583; SEQ ID NOs 61/62 (protein)
chain: MERGLPLLCAVLALVLAPAGAFRNDKRGPECSQNYTTPSGVIKSPGFPEKYPNSLECTYIVFAPKMSEIILEFESFDLEPDSNPPGGMFCRYDRLEIWDGFPDVGPHIGRYCGQKTPGRIRSSSGILSMVFYTDSAIAKEGFSANYSVLQSSVSEDFKCMEALGMESGEIHSDQITASSQYSTNWSAERSRLNYPENGWTPGEDSYREWIQVDLGLLRFVTAVGTQGAISKETKKKYYVKTYKIDVSSNGEDWITIKEGNKPVLFQGNTNPTDVVVAVFPKPLITRFVRIKPATWETGISMRFEVYGCKITDYPCSGMLGMVSGLISDSQITSSNQGDRNWMPENIRLVTSRSGWALPPAPHSYINEWLQIDLGEEKIVRGIIIQGGKHRENKVFMRKFKIGYSNNGSDWKMIMDDSKRKAKSFEGNNNYDTPELRTFPALSTRFIRIYPERATHGGLGLRMELLGCRSGSKENLYFQG

Binding to SEMA3A (SEMA3A-FC): Yes
B5: Trap AR: NRP1 trap a2b1, aa about 22-26 and 143-424; SEQ ID NOs 63/64 (protein)
chain: MERGLPLLCAVLALVLAPAGAFRNDKRGPECSQNYTTPSGVIKSPGFPEKYPNSLECTYIVFAPKMSEIILEFESFDLEPDSNPPGGMFCRYDRLEIWDGFPDVGPHIGRYCGQKTPGRIRSSSGILSMVFYTDSAIAKEGFSANYSVLQSSVSEDFKCMEALGMESGEIHSDQITASSQYSTNWSAERSRLNYPENGWTPGEDSYREWIQVDLGLLRFVTAVGTQGAISKETKKKYYVKTYKIDVSSNGEDWITIKEGNKPVLFQGNTNPTDVVVAVFPKPLITRFVRIKPATWETGISMRFEVYGCRSGSKENLYFQG

Binding to SEMA3A (SEMA3A-FC): Yes | Kd (human VEGF165): 67 nM
B6: Trap Z: NRP1 trap a1a2-b1b2-c, aa about 22-856, E319K, D320K; SEQ ID NOs 71/72 (protein)
chain: FRNDKCGDTIKIESPGYLTSPGYPHSYHPSEKCEWLIQAPDPYQRIMINFNPHFDLEDRDCKYDYVEVFDGENENGHFRGKFCGKIAPPPVVSSGPFLFIKFVSDYETHGAGFSIRYELFKRGPECSQNYTTPSGVIKSPGFPEKYPNSLECTYIVFAPKMSEIILEFESFDLEPDSNPPGGMFCRYDRLEIWDGFPDVGPHIGRYCGQKTPGRIRSSSGILSMVFYTDSAIAKEGFSANYSVLQSSVSEDFKCMEALGMESGEIHSDQITASSQYSTNWSAERSRLNYPENGWTPGKKSYREWIQVDLGLLRFVTAVGTQGAISKETKKKYYVKTYKIDVSSNGEDWITIKEGNKPVLFQGNTNPTDVVVAVFPKPLITRFVRIKPATWETGISMRFEVYGCKITDYPCSGMLGMVSGLISDSQITSSNQGDRNWMPENIRLVTSRSGWALPPAPHSYINEWLQIDLGEEKIVRGIIIQGGKHRENKVFMRKFKIGYSNNGSDWKMIMDDSKRKAKSFEGNNNYDTPELRTFPALSTRFIRIYPERATHGGLGLRMELLGCEVEAPTAGPTTPNGNLVDECDDDQANCHSGTGDDFQLTGGTTVLATEKPTVIDSTIQSEFPTYGFNCEFGWGSHKTFCHWEHDNHVQLKWSVLTSKTGPIQDHTGDGNFIYSQADENQKGKVARLVSPVVYSQNSAHCMTFWYHMSGSHVGTLRVKLRYQKPEEYDQLVWMAIGHQGDHWKEGRVLLHKSLKLYQVIFEGEIGKGNLGGIAVDDISINNHISQEDCAKPADLDKKNPEIKIDETGSTPGYEGEGEGDKNISRKPGNVLKTLDPRSGSKENLYFQG

Binding to SEMA3A (SEMA3A-FC): Yes | Kd (SEMA3A-FC; [1]): 4 nM | VEGF165 binding (dissociation constant) (human VEGF165): No binding
B7: Trap AC: NRP1 trap a1a2-b1b2-c, aa about 22-856, D320K; SEQ ID NOs 75/76 (protein)
chain: B6 chain with K298E

Binding to SEMA3A (SEMA3A-FC): No | Kd (human VEGF165): 29.5 nM
B8: Trap AB: NRP1 trap a1a2-b1b2-c, aa about 22-856, E348K, S346A; SEQ ID NOs 73/74 (protein)
chain: B6 chain with K298E, K299D, S325A, E327K

Binding to SEMA3A (SEMA3A-FC): No | Kd (SEMA3A-FC; [1]): > 1000 nM | Kd (human VEGF165): > 250 nM
B9: Trap N: NRP1 trap a1a2, aa about 22-265; SEQ ID NOs 85/86 (protein)
chain: FRNDKCGDTIKIESPGYLTSPGYPHSYHPSEKCEWLIQAPDPYQRIMINFNPHFDLEDRDCKYDYVEVFDGENENGHFRGKFCGKIAPPPVVSSGPFLFIKFVSDYETHGAGFSIRYELFKRGPECSQNYTTPSGVIKSPGFPEKYPNSLECTYIVFAPKMSEIILEFESFDLEPDSNPPGGMFCRYDRLEIWDGFPDVGPHIGRYCGQKTPGRIRSSSGILSMVFYTDSAIAKEGFSANYSVLRSGSKENLYFQG
